The target in experiment [1] is T1, polypeptide of SEQ ID NO: 3 (amino acids 23 to 363 of human IL-11Rα, serine at position 248, 8×HIS tag) (human, UniProt Q14626 23-363).
T1 construct: also called WT F/L
T1 sequence: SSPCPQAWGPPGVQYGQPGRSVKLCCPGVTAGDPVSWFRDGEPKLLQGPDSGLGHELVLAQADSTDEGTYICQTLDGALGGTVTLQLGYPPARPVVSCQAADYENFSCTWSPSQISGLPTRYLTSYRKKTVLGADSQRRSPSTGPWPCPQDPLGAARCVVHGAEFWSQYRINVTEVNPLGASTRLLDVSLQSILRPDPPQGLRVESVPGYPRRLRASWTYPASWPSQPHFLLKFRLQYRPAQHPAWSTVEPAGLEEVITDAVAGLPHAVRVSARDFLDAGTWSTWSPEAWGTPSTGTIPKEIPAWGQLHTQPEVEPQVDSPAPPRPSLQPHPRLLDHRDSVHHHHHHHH
As to the kind of experiment: Biacore, antibody captured on anti-human IgG Fc, receptor injected; mean ± SE, N = 3. The method, then:
(§1) Various point mutants of soluble forms of IL-11R were produced in which amino acids from mIL-11 were introduced into a soluble form of hIL-11 (SEQ ID NO: 85) (see Table 5 for positions of mutations relative to SEQ ID NO: 1 and for reference to the SEQ ID NO: of each polypeptide) and the binding of antibodies to those polypeptides or to polypeptides of SEQ ID NO: 3 or SEQ ID NO: 85 was determined using Biacore analysis or FACS.
(§2) Anti human IgG Fc specific antibody was chemically immobilized on a CM5 chip to ˜9000 RU. Antibodies were captured at about 0.3-1 μg/ml for 120 seconds on 2 spots in each flow cell. Adjacent spots consisting of only anti human IgG were used as a reference. IL-11 receptors were injected over the captured antibodies and reference spots at 40, 10, 5 and 2.5 nM in duplicate. Blank injections of buffer only were also performed in duplicate. Injection was performed for 3 minutes and dissociation monitored for a further 5 minutes.
In general terms: In SPR one partner is held on a chip, and binding of the other changes the refractive index at the surface.

Experiment [2] addresses T2, polypeptide of SEQ ID NO: 88 (human IL-11Rα 23-318 and mouse IL-11Rα 319-367, 8×HIS tag) (human and mouse (chimera)).
T2 chain: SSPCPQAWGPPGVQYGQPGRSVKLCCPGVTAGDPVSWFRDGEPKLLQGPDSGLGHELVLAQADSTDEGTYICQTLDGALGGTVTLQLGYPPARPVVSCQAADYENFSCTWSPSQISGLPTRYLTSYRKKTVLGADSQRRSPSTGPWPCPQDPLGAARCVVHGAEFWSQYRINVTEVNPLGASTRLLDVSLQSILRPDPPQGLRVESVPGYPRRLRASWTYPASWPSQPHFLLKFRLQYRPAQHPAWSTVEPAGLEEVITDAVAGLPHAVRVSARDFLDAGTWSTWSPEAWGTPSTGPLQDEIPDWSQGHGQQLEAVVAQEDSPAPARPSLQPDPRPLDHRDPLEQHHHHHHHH
Put plainly: Biacore, domain-swapped receptor; strong = KD of about 10 nM or lower. The method, then:
(§3) Various soluble forms of IL-11R comprising regions of hIL-11R and mIL-11R were produced and comprise sequences as set forth in SEQ ID NOs: 3 and 86-90 and the binding of antibodies 8E2, 8D10 and 8E4 to those polypeptides was determined using Western blotting or Biacore analysis.
(§4) For Biacore analysis, anti-human was IgG immobilized on the sensor surface at ˜10,000-12,000 RU and each antibody was captured at between 0.2 μg/ml and 0.5 μg/ml every cycle for 120 seconds. IL-11 receptors were injected over captured antibodies at varying concentrations, ranging from 1 μM down to 2.5 nM, including injections of buffer blanks. Association was monitored for 3-5 minutes, dissociation was monitored for 3-10 minutes. Approximate affinities were determined by fitting binding curves of each interaction to a 1:1 Kinetic Model.

Experiment [3] deals with T3, polypeptide of SEQ ID NO: 87 (human IL-11Rα 23-215 and mouse IL-11Rα 216-367, 8×HIS tag) (human and mouse (chimera)).
T3 chain: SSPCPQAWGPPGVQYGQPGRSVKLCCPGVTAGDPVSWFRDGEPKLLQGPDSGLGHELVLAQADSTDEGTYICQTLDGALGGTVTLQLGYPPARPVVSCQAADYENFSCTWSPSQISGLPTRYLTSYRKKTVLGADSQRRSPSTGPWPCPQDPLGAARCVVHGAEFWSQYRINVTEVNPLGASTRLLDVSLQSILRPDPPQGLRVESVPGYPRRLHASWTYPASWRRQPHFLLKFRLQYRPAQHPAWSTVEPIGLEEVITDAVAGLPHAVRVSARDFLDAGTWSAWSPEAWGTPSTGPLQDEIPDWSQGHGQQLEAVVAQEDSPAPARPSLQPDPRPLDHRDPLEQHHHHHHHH
The experiment is described as above. The procedure:
as §3, §4

Experiment [4] addresses T4, V117E mutant of soluble human IL-11Rα (SEQ ID NO: 95) (human, UniProt Q14626 23-318).
T4 construct: also called V95E
T4 sequence: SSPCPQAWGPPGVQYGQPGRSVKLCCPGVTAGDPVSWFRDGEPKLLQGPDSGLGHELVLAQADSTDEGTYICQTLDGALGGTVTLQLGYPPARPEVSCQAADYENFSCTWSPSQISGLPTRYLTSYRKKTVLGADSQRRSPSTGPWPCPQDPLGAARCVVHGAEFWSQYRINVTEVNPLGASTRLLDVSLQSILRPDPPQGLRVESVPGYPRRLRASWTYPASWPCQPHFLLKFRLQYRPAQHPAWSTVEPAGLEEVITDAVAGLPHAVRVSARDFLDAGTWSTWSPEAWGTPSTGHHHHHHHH
Put plainly: Biacore, antibody captured on anti-human IgG Fc, receptor injected; mean ± SE, N = 4. The method, then: as §1, §2

The target in experiment [5] is T4, V117E mutant of soluble human IL-11Rα …. Put plainly: Biacore, antibody captured; * indicates undetectable binding. The method, then: as §1, §2
Experiment [6] deals with T5, mouse IL-11Rα on transfected cells (mouse, UniProt P70225 24-424).
T5 construct: also called mIL-11Rα
T5 sequence: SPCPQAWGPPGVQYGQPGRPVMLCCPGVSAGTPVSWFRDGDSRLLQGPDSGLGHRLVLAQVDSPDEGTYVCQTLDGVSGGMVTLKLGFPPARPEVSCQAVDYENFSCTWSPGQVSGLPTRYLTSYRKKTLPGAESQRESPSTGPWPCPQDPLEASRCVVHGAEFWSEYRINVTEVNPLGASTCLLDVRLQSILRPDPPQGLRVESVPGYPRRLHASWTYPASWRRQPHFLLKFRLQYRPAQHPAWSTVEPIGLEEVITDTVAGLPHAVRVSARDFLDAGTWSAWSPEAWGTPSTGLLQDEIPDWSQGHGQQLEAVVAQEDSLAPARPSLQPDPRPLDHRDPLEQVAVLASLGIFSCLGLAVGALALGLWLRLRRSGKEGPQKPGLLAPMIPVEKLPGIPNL
Put plainly: binding to transfected cells.

B1: antibody 8E4 (antibody, human IgG4 S228P, lambda, V domains shown)
VH: EVQLLESGGGLVQPGGSLRLSCAASGFTFSWYFMGWVRQAPGKGLEWVSYIYPSGGSTGYADSVKGRFTISRDNSKNTLYLQMHSLRAEDTAVYYCARDEGYCSSTSCYFDAFDIWGQGTMVTVSS
VL: QSALTQPPSASGSPGQSVAISCTGTSSDVGGYNFVSWYQQHPGKAPKLLIYEVTKRPSGVPDRFSGSKAGNTASLTVSGLQAEDEADYYCSSYGGSNNAGVFGTGTKVTVLG
Regarding B1, the Kd in experiment [1] stood at 4 nM; in experiment [4] it was 5.54 nM. The binding result in experiment [2] and in experiment [3] was “binds” throughout.

B2: antibody 8D10 (antibody, human IgG4 S228P, kappa, V domains shown)
VH: EVQLLESGGGLVQPGGSLRLSCAASGFTFSRYMMGWVRQAPGKGLEWVSSIVPSGGITIYADSVKGRFTISRDNSKNTLYLQMNSLRAEDTAVYYCARDHMGIVATDWGQGTLVTVSS
VL: DIQMTQSPSSLSASVGDRVTITCQASQDITNYLNWYLHKPGKAPKLLIYDASNLQTGVPSRFSGSGSGTDFTFTITSLQPEDFGTYYCQQYDTLHPSFGPGTTVDIKR
For the molecule B2, the binding result in experiment [5] is reported as “no binding”; in experiment [6], “no binding”; in experiment [2], “binds”; in experiment [3], “binds”. Besides, the dissociation constant Kd in experiment [1] came to 1 nM.

The term Kd denotes a measure of binding affinity in units of concentration. A high value points to a looser complex.
